Reference: patent US20240384288A1, “COUMARIN TRANSPORTERS AND USES THEREOF” (BASF PLANT SCIENCE COMPANY GMBH, priority 2021, published 2024)

Test system: leaves of N. benthamiana plants
Assay: Transient expression of coumarin transporter in N. benthamiana leaves, coumarins in leaf wash water / leaves by HPLC
Type: in vivo
Protocol: Droplets of double-distilled water (30 μl) were evenly distributed on the surface of detached leaves placed in a petri dish (approx. 40 droplets on sunflower, 20 droplets on N. benthamiana). Samples were kept at RT for 24 h at high humidity. Subsequently, droplets were carefully collected without touching the leaf surface, filtered and used for HPLC analysis or germination assays.
For transient in planta overexpression assays cDNA sequences of GOIs were cloned in the plant overexpression vector pB7WG2D13 using the Gateway® cloning technology. Similar cloning steps are performed to generate transient in-planta overexpression constructs for any of the other coumarin transporter proteins A0A251U1Q8_HELAN, A0A5N6LHL1_9ASTR, A0A 1I9L1U9_ARTAN, A0A2J6KQ56_LACSA and A0A2G2ZJV1_CAPAN with A0A1S3XDP1_TOBAC as control. […]
Coumarin methanol extracts were centrifuged for 10 min at 21,000 rcf and 70 μl of the supernatant were separated via HPLC on a reverse phase C18 column (KROMAPLUS 100-5-C18 5.0, Prontosil). ddH2O and acetonitrile, both containing 1.5% (v/v) acetic acid, were used as solvents. […] Coumarin fluorescence was detected at λ=335 nm excitation and λ=460 nm emission (FP 920 Intelligent Fluorescence Detector, Jasco) or at λ=342 nm (UV absorbance). […] For quantification, a standard curve of commercial standards with known concentrations was measured.

B1: AtPDR9: already published Arabidopsis thaliana coumarin transporter, used as control (protein, UniProt Q9LFH0 1-1450, looked up)
ABC transporter G family …: MAHMVGADDIESLRVELAEIGRSIRSSFRRHTSSFRSSSSIYEVENDGDVNDHDAEYALQWAEIERLPTVKRMRSTLLDDGDESMTEKGRRVVDVTKLGAVERHLMIEKLIKHIENDNLKLLKKIRRRIDRVGMELPTIEVRYESLKVVAECEVVEGKALPTLWNTAKRVLSELVKLTGAKTHEAKINIINDVNGIIKPGRLTLLLGPPSCGKTTLLKALSGNLENNLKCSGEISYNGHRLDEFVPQKTSAYISQYDLHIAEMTVRETVDFSARCQGVGSRTDIMMEVSKREKEKGIIPDTEVDAYMKAISVEGLQRSLQTDYILKILGLDICAEILIGDVMRRGISGGQKKRLTTAEMIVGPTKALFMDEITNGLDSSTAFQIVKSLQQFAHISSATVLVSLLQPAPESYDLFDDIMLMAKGRIVYHGPRGEVLNFFEDCGFRCPERKGVADFLQEVISKKDQAQYWWHEDLPYSFVSVEMLSKKFKDLSIGKKIEDTLSKPYDRSKSHKDALSFSVYSLPNWELFIACISREYLLMKRNYFVYIFKTAQLVMAAFITMTVFIRTRMGIDIIHGNSYMSALFFALIILLVDGFPELSMTAQRLAVFYKQKQLCFYPAWAYAIPATVLKVPLSFFESLVWTCLSYYVIGYTPEASRFFKQFILLFAVHFTSISMFRCLAAIFQTVVASITAGSFGILFTFVFAGFVIPPPSMPAWLKWGFWANPLSYGEIGLSVNEFLAPRWNQMQPNNFTLGRTILQTRGMDYNGYMYWVSLCALLGFTVLFNIIFTLALTFLKSPTSSRAMISQDKLSELQGTEKSTEDSSVRKKTTDSPVKTEEEDKMVLPFKPLTVTFQDLNYFVDMPVEMRDQGYDQKKLQLLSDITGAFRPGILTALMGVSGAGKTTLLDVLAGRKTSGYIEGDIRISGFPKVQETFARVSGYCEQTDIHSPNITVEESVIYSAWLRLAPEIDATTKTKFVKQVLETIELDEIKDSLVGVTGVSGLSTEQRKRLTIAVELVANPSIIFMDEPTTGLDARAAAIVMRAVKNVADTGRTIVCTIHQPSIDIFEAFDELVLLKRGGRMIYTGPLGQHSRHIIEYFESVPEIPKIKDNHNPATWMLDVSSQSVEIELGVDFAKIYHDSALYKRNSELVKQLSQPDSGSSDIQFKRTFAQSWWGQFKSILWKMNLSYWRSPSYNLMRMMHTLVSSLIFGALFWKQGQNLDTQQSMFTVFGAIYGLVLFLGINNCASALQYFETERNVMYRERFAGMYSATAYALGQVVTEIPYIFIQAAEFVIVTYPMIGFYPSAYKVFWSLYSMFCSLLTFNYLAMFLVSITPNFMVAAILQSLFYVGFNLFSGFLIPQTQVPGWWIWLYYLTPTSWTLNGFISSQYGDIHEEINVFGQSTTVARFLKDYFGFHHDLLAVTAVVQIAFPIALASMFAFFVGKLNFQRR
Transporter transiently coexpressed with F6'H1, versus biosynthesis gene without transporter
  Scopoletin content in leaf wash water (LWW): no increased coumarin secretion
Transporter transiently coexpressed with F6'H1 plus OMT3, versus biosynthesis genes without transporter
  Scoparone content in leaf wash water (LWW): no increased coumarin secretion
